Assay results: publication PMC12931925

Target: KRAS^G12D (UniProt P01116)

RBDCRD-NarX fusions (RAS-binding components of the RAS sensor, RBDCRD wild-type), sequence (P0AFA2 whole entry, looked up, the tested form may be a part): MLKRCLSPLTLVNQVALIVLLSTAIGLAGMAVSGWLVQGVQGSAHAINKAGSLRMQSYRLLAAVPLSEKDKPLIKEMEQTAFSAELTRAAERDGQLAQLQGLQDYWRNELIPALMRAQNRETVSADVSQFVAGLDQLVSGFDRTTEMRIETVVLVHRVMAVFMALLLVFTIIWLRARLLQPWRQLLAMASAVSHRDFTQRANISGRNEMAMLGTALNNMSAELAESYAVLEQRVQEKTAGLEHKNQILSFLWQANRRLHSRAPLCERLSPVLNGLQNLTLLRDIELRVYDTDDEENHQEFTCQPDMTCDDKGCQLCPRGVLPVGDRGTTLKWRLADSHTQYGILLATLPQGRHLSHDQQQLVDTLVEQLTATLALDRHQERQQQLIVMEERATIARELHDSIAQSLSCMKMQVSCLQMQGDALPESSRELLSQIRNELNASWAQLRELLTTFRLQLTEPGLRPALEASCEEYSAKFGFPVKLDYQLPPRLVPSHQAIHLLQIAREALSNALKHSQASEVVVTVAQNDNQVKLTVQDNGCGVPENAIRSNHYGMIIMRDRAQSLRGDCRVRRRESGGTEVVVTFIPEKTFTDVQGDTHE

increase in relative mCerulean output of the functional RAS sensor compared to 0 ng/well of KRAS^G12D plasmid (HEK293, Figure 2—figure supplement 2b): 14 fold
Substance: RBDCRD-NarX fusions (RAS-binding components of the RAS sensor, RBDCRD wild-type) (from UniProt P0AFA2 379-598; P0AFA2 379-598)
